For test [1], the target named is T1, mouse IL-13 (mouse, UniProt P20109 26-131, limits assumed).
T1 construct: also called mIL-13; murine IL-13
T1 sequence (looked up): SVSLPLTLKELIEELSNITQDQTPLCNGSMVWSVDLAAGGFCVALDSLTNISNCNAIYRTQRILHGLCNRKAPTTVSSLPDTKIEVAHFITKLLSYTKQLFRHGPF
Put plainly: indirect ELISA, captured mAb, biotinylated mouse IL-13. As to the method: Murine anti-human IL-13 mAbs were prepared at various concentrations ranging from 0.1 to 100 ng/ml in PBS containing 0.1% BSA; 50 ul of each antibody dilution was added to the coated ELISA plate and incubated for 1 hour at room temperature. Wells were washed 3 times with PBS containing 0.05% Tween-20. […] Wells were washed 3 times with PBS containing 0.05% Tween-20. Streptavidin HRP (Pierce #21126, Rockland, Ill.) was diluted 1:20000 in PBS containing 0.1% BSA; […] was added and the plates incubated for 1 hour at room temperature. Plates were washed 3 times with PBS containing 0.05% Tween-20. Fifty microliters of TMB solution (Sigma # T0440, St. Louis, Mo.) was added to each well and incubated for 10 minutes at room temperature. The reaction was stopped by addition of 1N sulphuric acid. Plates were read spectrophotmetrically at a wavelength of 450 nm.
In general terms: In an ELISA, binding on a coated surface is turned into a signal by an enzyme label.

Test [2] addresses T2, human IL-13 variant (R130Q) (human, UniProt P35225 35-146). Briefly: cell-based or functional assay.
Test [3] addresses cynomolgus IL-13 (cynomolgus, UniProt Q0PW92 21-132). Put plainly: cell-based or functional assay.
Test [4] concerns the target T3, human IL-13 wild type (human, UniProt P35225 35-146). Briefly: cell-based or functional assay.
Test [5] has as its target T2, human IL-13 variant (R130Q). Briefly: SPR (Biacore), mAb captured, IL-13 as analyte. As to the method: (§1) The BIACORE assay (Biacore, Inc, Piscataway, N.J.) determines the affinity of antibodies with kinetic measurements of on-, off-rate constants. […] All chemicals were obtained from Biacore® AB (Uppsala, Sweden) or otherwise from a different source as described in the text. Approximately 5000 RU of goat anti-mouse IgG, (Fcγ), fragment specific polyclonal antibody (Pierce Biotechnology Inc, Rockford, Ill.) diluted in 10 mM sodium acetate (pH 4.5) was directly immobilized across a CM5 research grade biosensor chip using a standard amine coupling kit according to manufacturer's instructions and procedures at 25 μg/ml. Unreacted moieties on the biosensor surface were blocked with ethanolamine. Modified carboxymethyl dextran surface in flowcell 2 and 4 was used as a reaction surface. Unmodified carboxymethyl dextran without goat anti-mouse IgG in flow cell 1 and 3 was used as the reference surface. For kinetic analysis, rate equations derived from the 1:1 Langmuir binding model were fitted simultaneously to association and dissociation phases of all eight injections (using global fit analysis) with the use of Biaevaluation 4.0.1 software. Purified antibodies were diluted in HEPES-buffered saline for capture across goat anti-mouse IgG specific reaction surfaces. Mouse antibodies to be captured as a ligand (25 μg/ml) were injected over reaction matrices at a flow rate of 5 μl/min. The association and dissociation rate constants, kₒₙ (unit M⁻¹s⁻¹) and koff (unit s⁻¹) were determined under a continuous flow rate of 25 μl/min Rate constants were derived by making kinetic binding measurements at ten different antigen concentrations ranging from 10-200 nM. […] Binding is recorded as a function of time and kinetic rate constants are calculated.
Background: Surface plasmon resonance follows binding to a sensor surface in real time, without labels.

Test [6] has as its target T3, human IL-13 wild type. Briefly: SPR (Biacore), mAb captured, IL-13 as analyte. As to the method: as §1

T3 sequence (P35225 other isoform, or with tags, fused parts or gaps limits assumed): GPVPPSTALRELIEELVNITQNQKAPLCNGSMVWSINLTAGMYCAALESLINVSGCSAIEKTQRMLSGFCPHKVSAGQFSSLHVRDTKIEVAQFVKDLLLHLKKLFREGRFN
T2 sequence (P35225 35-146 limits assumed, stated change not applied): as the sequence (P35225 other isoform, or with tags, fused parts or gaps limits assumed) above, with R110Q counted along it
Chain of cynomolgus IL-13 (Q0PW92 entry or part of it): as the sequence (P35225 other isoform, or with tags, fused parts or gaps limits assumed) above, with G1S, R10K, M42V, S67N, H83R, L100V, R110Q counted along it

B1: 5F1 (antibody, V domains shown)
VH: QVQLQQSGAELARPGTSVKLSCKASGYTFTTYGISWVKQRTGQGLEWIGEIYPGSYNTYYNEKFRGKATLTADKSSSTAYMQLSSLTSEDSAVYFCSRWRTSYFSDYGYFDYWGQGTTLTVSS
VL: DVVMTQTPLSLPVSLGDQASISCRSSQSLVHSHGNTYLHWYLQKPGQSPKLLIYTVSNRFSGVPDRFSGSGSGTDFTLKISRVEAEDLGVYFCSQSTHVPYTFGGGTKLEIKR
As to B1, the binding result in test [1] is given as “no binding (tested: 0.1 to 100 ng/ml)”. In addition, the figures for the “Average IC50, IL-13-induced TARC production by A-549 cells” value (shortened to “Average IC50”) in test [2], in test [3] and in test [4] were 90 pM, 1880 pM and 97 pM, respectively. In addition, the results for the Kd in test [5] and in test [6] were 31.4 pM and 28.9 pM, respectively. The dissociation rate constant (koff) in test [5] was found to be 1.57e-05 s⁻¹; in test [6] it was 2.24e-05 s⁻¹. In addition, the results for the kon in test [5] and in test [6] were 502000 M⁻¹ s⁻¹ and 774000 M⁻¹ s⁻¹, respectively.

B2: 5G1 (antibody, V domains shown)
VH: QVQLQQSGAELARPGTSVKLSCKASGYTFTTYGVSWVKQRTGQGLEWIGEIYPGNYNTYYNEKFRGKATLTADKSSSTAYMQLSSLTSEDSAVYFCSRWRTSYFSDYGYFDYWGQGTTLTVSS
VL: DVVMTQTPLSLPVSLGDQASISCRSSQSLVHSHGNTYLHWYLQKPGQSPKLLIYTVSNRFSGVPDRFSGSGSGTDFTLKISRVEAEDLGVYFCSQSTHVPYTFGGGTKLEIKR
Take B2: the binding result in test [1] was “no binding (tested: 0.1 to 100 ng/ml)”. Also, the “Average IC50” value in test [2] came to 48 pM; in test [3] it was 612 pM; in test [4], 76 pM. For the same molecule, the figures for the dissociation constant Kd in test [5] and in test [6] were 130 pM and 8.77 pM, respectively. Besides, the dissociation rate constant (koff) worked out at 2.05e-05 s⁻¹ in test [5] and 5.49e-06 s⁻¹ in test [6]. Further, the figures for the kon in test [5] and in test [6] were 157000 M⁻¹ s⁻¹ and 626000 M⁻¹ s⁻¹, respectively.

B3: 1B6 (antibody, V domains shown)
VH: QVQLKESGPGLVAPSQSLSITCTVSGFSLTGYGVNWVRQPPGKGLEWLGMIWGDERIDYNSALKSRLSITKDNSKSQVFLKMNSLQTDDTGRYFCARDGYFPYAMDYWGQGTSVTVSS
VL: NIVLTQSPASLAVSLGQRATISCRASETVDSYGKSYLHWYQQKPGQPPKLLIYLASNLESGVPARFSGSGSRTDFTLIIDPVEADDAATYYCQQNNEGPRTFGGGTKLEIKR
With B3, in test [1], the binding result is recorded as “no binding (tested: 0.1 to 100 ng/ml)”. Besides, the “Average IC50” value in test [2] stood at 240 pM; in test [3], 521 pM; in test [4] it was 840 pM. Moreover, the dissociation constant (Kd) in test [5] was found to be 210 pM; in test [6] it was 545 pM. Moreover, the off-rate (koff) worked out at 0.000222 s⁻¹ in test [5] and 0.000518 s⁻¹ in test [6]. Further, the association rate constant (kon) was 1.06e+06 M⁻¹ s⁻¹ in test [5] and 951000 M⁻¹ s⁻¹ in test [6].

B4: 6C8 (antibody, V domains shown)
VH: QVQLKESGPGLVAPSQSLSITCTVSEFSLTGSSVNWVRQPPGKGLEWLGMIWGDGRIDYNSALKSRLSISKDNSKSQVFLKMNSLQTDDTARYYCARDGYYPYAMNYWGQGTSVTVSS
VL: NIVLTQSPASLAVSLGQRATISCRASESVDSYGNSFMHWYQQKPGQPPKLLIYLASNLESGVPARFSGSGSRADFTLTIDPVEADDAATYYCQQNNENPRTFGGGTKLEIKR
Take B4: the binding result in test [1] is listed as “no binding (tested: 0.1 to 100 ng/ml)”. Moreover, the “Average IC50” value in test [2] came out at 340 pM; in test [3], 161 pM; in test [4], 720 pM. The Kd was found to be 403 pM in test [5] and 484 pM in test [6]. The dissociation rate constant (koff) in test [5] is 0.000394 s⁻¹; in test [6], 0.000702 s⁻¹. For the same molecule, the on-rate constant (kon) was 978000 M⁻¹ s⁻¹ in test [5] and 1.45e+06 M⁻¹ s⁻¹ in test [6].

B5: 8B6 (antibody, V domains shown)
VH: QVQLKESGPGLVAPSQSLSITCTVSGFSLTGHNINWVRQPPGKGLEWLGMIWGDGNTDFNSALKSRLSISKDNSKSQVFLKLNSLQTDDTARYYCARDGYYPYAIKFWGQGTSVTVSS
VL: HIVLTQSPASLAVSLGQRATISCRASETVDSYGSSFLHWYQQKPGQPPKLLIYLASKLESGVPARFSGSGSRTDFTLTIDPVEADDAATYYCQQNNEGPRTFGGGSKLEIKR
For the molecule B5, the binding result in test [1] was “no binding (tested: 0.1 to 100 ng/ml)”. The “Average IC50” value in test [2] turned out to be 480 pM. The “Average IC50” value in test [3] turned out to be 395 pM. In test [5], this molecule displayed a Kd of 976 pM, a koff of 0.00096 s⁻¹ and an on-rate constant (kon) of 983000 M⁻¹ s⁻¹. Further, in test [6], the dissociation constant (Kd) was found to be 523 pM, the koff was determined as 0.000607 s⁻¹ and the kon came out at 1.16e+06 M⁻¹ s⁻¹.

B6: 29G5 (antibody, V domains shown)
VH: QVTLKESGPGILQPSQTLSLTCSFSGFSLSTSDMGVDWIRQPSGKDLEWLAHIWWDDVKRYNPALKSRLTISKDTSSSQVFLMLASVDTADTATYYCARIVSSGYIYYALDYWGQGTSVTVSS
VL: DIQMTQTASSLSASLGDRVTISCRASQDIRNYLNWYQRKPDGTVKLLIYYTSRLHSGVPSRFSGSGSGTDYSLTISNLEQEDIATYFCQQGNTLPLTFGGGTKLEIKR
Take B6: the binding result in test [1] is “no binding (tested: 0.1 to 100 ng/ml)”. Also, the “Average IC50” value worked out at 200 pM in test [2], 4390 pM in test [3] and 290 pM in test [4]. Further, the values for the equilibrium dissociation constant (Kd) in test [5] and in test [6] were 329 pM and 204 pM, respectively. Besides, the off-rate (koff) in test [5] is 0.000104 s⁻¹; in test [6] it was 0.000175 s⁻¹. Besides, the kon turned out to be 316000 M⁻¹ s⁻¹ in test [5] and 859000 M⁻¹ s⁻¹ in test [6].

B7: 33C3 (antibody, V domains shown)
VH: QVTLKESGPGILQPSQTLSLTCSFSGFSLSTSDLGVGWIRQPSGKGLEWLAHIWWDDVKRYNPALKSRLTISKDTSSSQVFLMIASVDTADTATYYCARIGSSGYIYYEMDYWGQGTSVTVSS
VL: DIQMTQTTSSLSASLGDRVTITCRASQDIRNYLNWYQQKPDGTVKLLIYYTSRLHSGVPSRFSGSGSGTDYSLTISNLDQEDIATYFCQQGNTLPLTFGGGTRLEIKR
For the molecule B7, the binding result in test [1] is listed as “no binding (tested: 0.1 to 100 ng/ml)”. Also, the “Average IC50” value in test [2] was 100 pM; in test [3] it was 847 pM; in test [4] it was 150 pM. The dissociation constant (Kd) in test [5] was determined as 124 pM; in test [6] it was 63.9 pM. Besides, the koff turned out to be 9.59e-05 s⁻¹ in test [5] and 0.000149 s⁻¹ in test [6]. Also, the results for the kon in test [5] and in test [6] were 770000 M⁻¹ s⁻¹ and 2.33e+06 M⁻¹ s⁻¹, respectively.

B8: 4A8 (antibody, V domains shown)
VH: EVQLQQSGAEFVRPGALVKLSCKASGFNIKDYYMYWVKQRPEQGLEWIGRIDPENGNTIYDPKFQGKASITGDTSSNTAYLQLSSLTSEDTAVYYCARYAYYGPFDYWGQGTTLTVSS
VL: QAVVTQESALTTSPGETVTLTCRSSIGTVTTNNYANWVQEKPDHLFTGLIGSTNNRAPGVPARFSGSLIGDKAALTITGAQTEDEAIYFCALWYSNHWVFGGGTKLTVLG
On to B8, for which the binding result in test [1] is recorded as “no binding (tested: 0.1 to 100 ng/ml)”. Also, the “Average IC50” value in test [2] is 270 pM. The equilibrium dissociation constant (Kd) in test [5] came out at 157 pM; in test [6] it was 89 pM.

As a reminder, the Kd is the concentration at which binding is half-saturated. A lower Kd goes with tighter binding. One may read the koff as the first-order rate constant of dissociation. The kon is the rate constant with which the complex forms. Read a high kon as fast association.

Values taken from US20110165066A1 (AbbVie / Abbott, published 2011).
